Measurements: patent US20230287120A1 (ALLOGENE THERAPEUTICS, published 2023)
Substitutions are numbered along the chain they refer to.

T1: Flag tagged recombinant DLL3 (Adipogen) (Homo sapiens (Human), UniProt Q9NYJ7 27-492)
T1 construct: Bought reagent; also called Flag-DLL3
T1 sequence: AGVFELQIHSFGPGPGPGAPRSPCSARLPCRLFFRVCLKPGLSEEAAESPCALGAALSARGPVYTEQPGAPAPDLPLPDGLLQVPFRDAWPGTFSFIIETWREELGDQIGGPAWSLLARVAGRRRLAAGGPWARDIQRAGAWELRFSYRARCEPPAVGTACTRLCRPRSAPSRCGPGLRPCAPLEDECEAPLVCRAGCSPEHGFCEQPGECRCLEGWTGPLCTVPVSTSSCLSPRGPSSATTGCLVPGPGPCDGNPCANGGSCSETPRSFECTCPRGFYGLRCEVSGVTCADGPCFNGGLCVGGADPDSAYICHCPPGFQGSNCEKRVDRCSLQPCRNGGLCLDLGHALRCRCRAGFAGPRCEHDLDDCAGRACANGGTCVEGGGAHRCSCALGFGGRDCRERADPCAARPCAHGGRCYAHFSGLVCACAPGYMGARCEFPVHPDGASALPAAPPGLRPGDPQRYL

T2: human DLL3 extracellular domain (ECD) with C-terminal 8xHis tag and Avi tag (human, UniProt Q9NYJ7 27-492)
T2 construct: extracellular domain; Expressed in Expi293, purified by IMAC and SEC; also called huDLL3; not shown: Avi tag
T2 sequence: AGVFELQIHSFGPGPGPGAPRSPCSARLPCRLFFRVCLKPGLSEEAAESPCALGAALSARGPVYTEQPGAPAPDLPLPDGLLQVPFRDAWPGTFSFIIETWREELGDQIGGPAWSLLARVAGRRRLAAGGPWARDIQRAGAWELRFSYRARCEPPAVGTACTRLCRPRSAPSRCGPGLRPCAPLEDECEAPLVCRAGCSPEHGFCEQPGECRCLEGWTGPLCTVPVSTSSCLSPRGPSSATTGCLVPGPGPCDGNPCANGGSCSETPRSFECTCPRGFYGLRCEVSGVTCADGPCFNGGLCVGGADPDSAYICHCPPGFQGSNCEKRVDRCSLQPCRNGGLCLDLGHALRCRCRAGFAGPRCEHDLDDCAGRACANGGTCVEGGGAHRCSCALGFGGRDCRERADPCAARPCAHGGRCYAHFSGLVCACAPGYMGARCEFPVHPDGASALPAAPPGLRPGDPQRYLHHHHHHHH

B1: 11A3 (other)
CAR: QVQLQESGPGLVKPSETLSLTCTVSSDSISNYYWSWIRQPPGKGLEWISYIYYSGITNYNPSLKSRVTISVDTSKNQFSLKLSSVTAADTAVYYCARITVTGFYFDYWGQGTLVTVSSGGGGSGGGGSGGGGSGGGGSEIVLTQSPGTLSLSPGERATLSCRASQSISRSYLAWYQQKPGQAPRHLIYGASSRATGIPDRFSGSGSGTDFILTISRLEPEDFAVYYCQQYDTSPLTFGGGTKVEIKTTTPAPRPPTPAPTIASQPLSLRPEACRPAAGGAVHTRGLDFACDIYIWAPLAGTCGVLLLSLVITKRGRKKLLYIFKQPFMRPVQTTQEEDGCSCRFPEEEEGGCELRVKFSRSADAPAYQQGQNQLYNELNLGRREEYDVLDKRRGRDPEMGGKPRRKNPQEGLYNELQKDKMAEAYSEIGMKGERRRGKGHDGLYQGLSTATKDTYDALHMQALPPR
notes: also called anti-DLL3 CAR with 11A3 scFv, on primary T cells
B2: 4H8 (other)
CAR: QVQLQQSGPGLVKPSQTLSLTCAISGDSVSSNSATWNWIRQSPSRGLEWLGRTYYRSKWYDDYAVSVKSRITINPDTSKNHLSLHLNSVTPEDTAVYYCAGGGLVGAPDGFDVWGQGTMVTVSSGGGGSGGGGSGGGGSGGGGSQSVLTQPPSASGTPGQRVTISCSGSSSNIGSDPVNWYQQLPGTAPKLLIYSNNQRPSGVPDRFSGSKSGTSASLAISGLQSEDEADYYCSAWDDSLNGYVFGTGTKVTVLTTTPAPRPPTPAPTIASQPLSLRPEACRPAAGGAVHTRGLDFACDIYIWAPLAGTCGVLLLSLVITKRGRKKLLYIFKQPFMRPVQTTQEEDGCSCRFPEEEEGGCELRVKFSRSADAPAYQQGQNQLYNELNLGRREEYDVLDKRRGRDPEMGGKPRRKNPQEGLYNELQKDKMAEAYSEIGMKGERRRGKGHDGLYQGLSTATKDTYDALHMQALPPR
notes: also called anti-DLL3 CAR with 4H8 scFv, on primary T cells
B3: 9H12-K (other)
CAR: QVQLVQSGAEVKKPGASVKVSCKASGYTFTGYSIHWVRQAPGQGLEWMGWINPNSGGTFYAQKFQGRVTMTRDTSISTVYMELSRLRSDDTAVYYCARDGWGDYYYYGLDVWGQGTTVTVSLGGGGSGGGGSGGGGSGGGGSDIQMTQSPSSVSASVGDRVTITCRASQDISSWLAWYQQKPGKAPKLLIYTASSLQGGVPSRFSGSGSGTDFTLTISSLQPEDLATYSCQQANVFPYTFGQGTKLEIKTTTPAPRPPTPAPTIASQPLSLRPEACRPAAGGAVHTRGLDFACDIYIWAPLAGTCGVLLLSLVITKRGRKKLLYIFKQPFMRPVQTTQEEDGCSCRFPEEEEGGCELRVKFSRSADAPAYQQGQNQLYNELNLGRREEYDVLDKRRGRDPEMGGKPRRKNPQEGLYNELQKDKMAEAYSEIGMKGERRRGKGHDGLYQGLSTATKDTYDALHMQALPPR
notes: also called anti-DLL3 CAR with 9H12-K scFv, on primary T cells
B4: 10G1-K (other)
CAR: EVQLLESGGGLVQPGGSLRLSCAASGFTFSSYAMNWVRQAPGKGLEWVSTISGSGGSTYYADSVKGRFTISRDNSKNTLYLQMNSLRAEDTAVFYCAIDPEYYDILTGGDYWGQGTLVTVSSGGGGSGGGGSGGGGGSGGGGSDIQMTQSPSAMSASVGDRVTITCRASQGISNYLAWFQQKPGKVPKRLIYAASSLQSGVPSRFSGSGSGTEFTLTISSLQPEDFATYFCLQHDSFPLTFGGGTKVEIKTTTPAPRPPTPAPTIASQPLSLRPEACRPAAGGAVHTRGLDFACDIYIWAPLAGTCGVLLLSLVITKRGRKKLLYIFKQPFMRPVQTTQEEDGCSCRFPEEEEGGCELRVKFSRSADAPAYQQGQNQLYNELNLGRREEYDVLDKRRGRDPEMGGKPRRKNPQEGLYNELQKDKMAEAYSEIGMKGERRRGKGHDGLYQGLSTATKDTYDALHMQALPPR
notes: also called anti-DLL3 CAR with 10G1-K scFv, on primary T cells
B5: anti-DLL3 antibody 6F8 (IgG) (antibody, V domains shown)
VH: QVQLVQSGAEVKKPGSSVKVSCKASGGTFTNYCISWVRQAPGQGLEWMGGIIPIFGTTNYAQTFQGRVTITADKSTSTAYMELSSLRSEDTAVYYCARDNGDRYYYDMDVWGQGTTVTVSS
VL: QSVLTQPPSVSAAPGQKVTISCSGSSSNIGNNYVSWYQQLPGTAPKLLIYDNNKRPSGIPDRFSGSKSGTSATLGITGLQTGDEADYYCGTWDSSLSAVVFGGGTKLTVL
B6: anti-DLL3 antibody 17A2 (IgG) (antibody, V domains shown)
VH: QVQLQESGPGLVKPSGTLSLTCVVFGDSISSSNWWSWVRQPPGKGLEWIGEVFHSGSTNYNPSLKSRVTISVDKSKNQFSLKLSSVTAADTAVYYCARAAVAGALDYWGQGTLVTVSS
VL: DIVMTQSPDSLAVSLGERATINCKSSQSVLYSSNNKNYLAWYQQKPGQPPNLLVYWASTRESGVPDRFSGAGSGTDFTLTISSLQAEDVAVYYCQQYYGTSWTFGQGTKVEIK
notes: Full-length monoclonal antibody (IgG)
B7: anti-DLL3 antibody 11A3 (IgG) (antibody, V domains shown)
VH: QVQLQESGPGLVKPSETLSLTCTVSSDSISNYYWSWIRQPPGKGLEWISYIYYSGITNYNPSLKSRVTISVDTSKNQFSLKLSSVTAADTAVYYCARITVTGFYFDYWGQGTLVTVSS
VL: EIVLTQSPGTLSLSPGERATLSCRASQSISRSYLAWYQQKPGQAPRHLIYGASSRATGIPDRFSGSGSGTDFILTISRLEPEDFAVYYCQQYDTSPLTFGGGTKVEIK
notes: as for B6
B8: anti-DLL3 antibody 7F9 (IgG) (antibody, V domains shown)
VH: EVQLVESGGGLVQPGGSLRLSCAASGFTFSSHDMHWVRQATGKGLEWVSAIGIAGDTYYSGSVKGRFTISRENAKNSLYLQMNSLRAGDTAVYYCARANWGEGAFDIWGQGTMVTVSS
VL: DIQMTQSPSSLSASVGDRVTITCRASQGISDYLAWYQQKPGKIPKLLIYAASTLQSGVPSRFSGSGSGTDFTLTISSLQPEDVATYYCQKYNSVPLTFGGGTKVEIK
notes: as for B6
B9: anti-DLL3 antibody 2G1 (IgG) (antibody, V domains shown)
VH: QLQLQESGPGLVKPSETLSLTCTVSGGSISSSSYYWGWIRQPPGKGLEWIGSIYYSGNIYHNPSLKSRVSISVDTSKNQFSLRLSSVTAADTAVYYCAREIIVGATHFDYWGQGTLVTVSS
VL: AIQMTQSPSSLSASVGDRVTITCRASQGIRNDLGWYQQKPGKAPELLIYAASSLQSGVPSRFSGSGSGTDFTLTISSLQPEDFATYYCLQDYNYPLTFGPGTKVDIK
notes: as for B6
B10: anti-DLL3 antibody 2D3 (IgG) (antibody, V domains shown)
VH: QVQLQESGPGLVKPSETLSLTCTVSDNSISNYYWSWIRQPPGKGLEWIAYIYYSGTTNYNPSLKSRVTISLDTSKNQFSLKLSSVTAADTAVYYCARLFNWGFAFDIWGQGTMVTVSS
VL: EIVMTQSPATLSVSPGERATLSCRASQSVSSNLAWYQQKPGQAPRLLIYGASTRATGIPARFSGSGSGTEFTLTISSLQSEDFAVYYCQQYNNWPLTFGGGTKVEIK
notes: as for B6
B11: anti-DLL3 antibody 2A6.C5 (IgG) (antibody, V domains shown)
VH: B10 VH with D26N, N27V, N31S, A49G, I69M, L71V, Y94F, F99S, V116F
VL: EIVLTQSPGTLSLSPGERATLSCRASQTISSSYLAWYQQKPGQAPRLLIYGASSRATGIPDRFSGSGSGTEFTLTISRLEPEDFAVYYCQQYGWSPITFGQGTRLEIK
notes: as for B6
B12: anti-DLL3 antibody 8E11 (IgG) (antibody, V domains shown)
VH: B10 VH with D26G, N27D, S35T, A49G, Y59S, I69V, N76S, K81N, L98V, W101R
VL: B7 VL with S28R, R31N, S32T, H47L, I73T, V86A
notes: as for B6
B13: anti-DLL3 antibody 9D3 (IgG) (antibody, V domains shown)
VH: B10 VH with N27D, A49G, Y52F, Y59H, V67L, T73K, S74A, K81R, L98V
VL: B7 VL with S28R, S32T, H47L, S64T, I73T, D93G, K108N
notes: as for B6
B14: anti-DLL3 antibody 3F2 (IgG) (antibody, V domains shown)
VH: QVQLQESGPGLVKPSGTLSLTCAVSGGSISSNNWWSWVRQPPGKGLEWIGDIHHSGSTNYKPSLKSRVTISVDKSKNQFSLNLISVTAADTAVYYCAREAGGYFDYWGQGILVTVSS
VL: DIQMTQSPSTLSASVGDRVTITCRASQSISSWLAWYQQKPGKAPKLLISKASSLESGVPSRFSGSGSGPEFTLTISSLQPADFATYYCQQYNSYSTFGQGTKLEIK
notes: as for B6
B15: anti-DLL3 antibody 4H8 (IgG) (antibody, V domains shown)
VH: QVQLQQSGPGLVKPSQTLSLTCAISGDSVSSNSATWNWIRQSPSRGLEWLGRTYYRSKWYDDYAVSVKSRITINPDTSKNHLSLHLNSVTPEDTAVYYCAGGGLVGAPDGFDVWGQGTMVTVSS
VL: not shown
notes: as for B6

Target: T1, Flag tagged recombinant DLL3 (Adipogen)
Assay: flow cytometry, percent of T cells that recognise recombinant DLL3, Donor 503
Procedure: (§1) To determine the percentage of T cells that were successfully transduced with DLL3 CAR, T cells were first incubated with 1 ug/ml Flag tagged recombinant DLL3 (Adipogen) in PBS+1% BSA for 20 minutes at 4 C.

Row | Transduction efficiency [%] | Binder
1 | 42.1 | B1
2 | 39.3 | B2
3 | 41.4 | B3
4 | 53.7 | B4

Target: T1, Flag tagged recombinant DLL3 (Adipogen)
Assay: flow cytometry, percent of T cells that recognise recombinant DLL3, Donor 772
Procedure: as §1

Row | Transduction efficiency [%] | Binder
5 | 20 | B1
6 | 27.2 | B2
7 | 35.6 | B3
8 | 33.7 | B4

Target: T2, human DLL3 extracellular domain (ECD) …
Assay: SPR (Biacore), 37 C; IgG captured on chip, human DLL3 ECD in solution; 1:1 Langmuir fit
Procedure: The antibody binding kinetics were determined by surface plasmon resonance (Biacore™ surface plasmon resonance (SPR) system, GE Healthcare Bio-Sciences, Pittsburgh Pa.). The antibodies diluted in HBS-T+ running buffer (0.01 M HEPES pH 7.4, 0.15 M NaCl, 0.05% v/v Tween20, 1 mg/mL BSA) were captured on a CM4 chip immobilized with an antibody specific for the anti-DLL3 antibody constant domains. Purified DLL3 was serially diluted into HBS-T+, injected for 2 min at 30 uL/min and a dissociation time of 10 min then the surface regenerated with either 10 mM Glycine-HCl pH 1.7 or phosphoric acid between injections. […] Equilibrium dissociation constant (Kd) values are calculated as koff/kₒₙ.

Row | Kd [nM] | Binder
9 | 26.5 | B5
10 | 5.49 | B6
11 | 4.8 | B7
12 | 12.7 | B8
13 | 38.1 | B9
14 | 5.47 | B10
15 | 23.4 | B11
16 | 5.86 | B12
17 | 21.1 | B13
18 | 14.8 | B14
19 | 18.5 | B15

Target: T1, Flag tagged recombinant DLL3 (Adipogen)
Assay: flow cytometry, primary T cells with the CAR, 1 ug/ml Flag tagged recombinant DLL3, PE anti-Flag
Procedure: as §1

Row | Rec-DLL3 gate, percent of live CD3+ cells [%] | Binder
20 | 57.3 | B1
21 | 77.9 | B2
22 | 56.3 | B3
23 | 51.8 | B4
